Source: patent US20120060230

Columns and labels:
Assay in all cases: cell_activity
ZFN 28385 (synthetic) = details: pair with 28386, HEK293
ZFN 28386 (synthetic) = details: pair with 28385, HEK293
ZFN 28406 (synthetic) = details: pair with 28405, HEK293
ZFN 28405 (synthetic) = details: pair with 28406, HEK293
ZFN 15487 (synthetic) = details: pair with 15486, K562; approx 1% in RAJI
ZFN 25540 (synthetic) = details: pair with 25539, 10 ug mRNA, primary T cells; background 2.4%
ZFN 28404 (synthetic) = details: pair with 28403, HEK293
ZFN 15872 (synthetic) = details: pair with 15873, wt FokI, K562; approx 28% with EL/KK
ZFN 15873 (synthetic) = details: pair with 15872, wt FokI, K562; approx 28% with EL/KK
ZFN 28403 (synthetic) = details: pair with 28404, HEK293
ZFN 15910 (synthetic) = details: pair with 15909, EL/KK FokI, K562; 6 and 11% with wt FokI
ZFN 15507 (synthetic) = details: pair with 15506, K562
ZFN 18889 (synthetic) = details: pair with 24859, HLA A2, HEK293; with 18881 approx 3%; A3 allele 10% and 9%
ZFN 24859 (synthetic) = details: pair with 18889, HLA A2, HEK293; A3 allele 10%
ZFN 15909 (synthetic) = details: pair with 15910, EL/KK FokI, K562; 6 and 11% with wt FokI
ZFN 16787 (synthetic) = details: pair with 16783, 10 ug mRNA, primary T cells; background 2.4%
ZFN 18881 (synthetic) = details: pair with 18889, HLA A2, HEK293; A3 allele 9%
ZFN 15506 (synthetic) = details: pair with 15507, K562
ZFN 28393 (synthetic) = details: pair with 28394, HEK293
ZFN 28394 (synthetic) = details: pair with 28393, HEK293
ZFN 25539 (synthetic) = details: pair with 25540, 10 ug mRNA, primary T cells; background 2.4%

Work on “ACTCTGGGGTAGATGGAGAGCAGTACCT (double strand) [28385 site]” yielded an activity (% gene modification) (ZFN 28385 (synthetic)) of 39.

Sequence “AGAAGGCTGTGGGCTCCTCAGAGAAAAT (double strand) [28386 site]” has an activity (% gene modification) (ZFN 28386 (synthetic)) of 39.

With “CCACAGCCAGAGCCTCAGCAGGAGCCTG (double strand) [28406 site]” the activity (% gene modification) (ZFN 28406 (synthetic)) was 34.

“CGCAAGAGGCTGGAGAGGCTGAGGACTG (double strand) [28405 site]” was tested, and the activity (% gene modification) (ZFN 28405 (synthetic)) was 34.

Sequence “CTACTCGGGCCATCGGCGGCTGCCTCGG (double strand) [15487 site]” has an activity (% gene modification) (ZFN 15487 (synthetic)) of 15.

For “CTGACTTTGCATGTGCAAACGCCTTCAA (double strand) [25540 site]”, the activity (% CD3-negative cells) (ZFN 25540 (synthetic)) was 28.1.

“CTGGATGGGGCTTGGCTGATGGTCAGCA (double strand) [28404 site]” showed an activity (% gene modification) (ZFN 28404 (synthetic)) of 64.

Sequence “GAAATAAGGCATACTGGTATTACTAATG (double strand) [15872 site]” has an activity (ZFN 15872 (synthetic)) of 13 % NHEJ.

Work on “GAGGAGAGCAGGCCGATTACCTGACCCA (double strand) [15873 site]” yielded an activity (ZFN 15873 (synthetic)) of 13 % NHEJ.

Sequence “GCCCGCGGGCAGTTCTGCGCGGGGGTCA (double strand) [28403 site]” has an activity (% gene modification) (ZFN 28403 (synthetic)) of 64.

“GCGGGGGAAAGAGAGGAGGAGAGAAGGA (double strand) [15910 site]” gave an activity (ZFN 15910 (synthetic)) of 14 % NHEJ.

Sequence “GCTCGAAGGCTTGGTGGCCGGGGCCAGT (double strand) [15507 site]” has an activity (% gene modification) (ZFN 15507 (synthetic)) of 2.

“GTATGGCTGCGACGTGGGGTCGGACGGG (double strand) [18889 site]” gave an activity (ZFN 18889 (synthetic)) of 6 % NHEJ.

“TCCTCTGGACGGTGTGAGAACCTGGCCC (double strand) [24859 site]” showed an activity (ZFN 24859 (synthetic)) of 6 % NHEJ.

Work on “TCTCCCAGGGTGGTTCAGTGGCAGAATT (double strand) [15909 site]” yielded an activity (ZFN 15909 (synthetic)) of 14 % NHEJ.

“TCTCGGAGAATGACGAGTGGACCCAGGA (double strand) [16787 site]” gave an activity (% CD3-negative cells) (ZFN 16787 (synthetic)) of 9.4.

“TTATCTGGATGGTGTGAGAACCTGGCCC (double strand) [18881 site]” was tested, and the activity (ZFN 18881 (synthetic)) was 3 % NHEJ.

Work on “TTGATGTCAGGGAAGATCTCTCTGATGA (double strand) [15506 site]” yielded an activity (% gene modification) (ZFN 15506 (synthetic)) of 2.

Sequence “TTGATTCGAGACATGGTGTAGGTGAAGC (double strand) [28393 site]” has an activity (% gene modification) (ZFN 28393 (synthetic)) of 49.

For “TTGCGGATCCGGGAGCAGCTTTTCTCCT (double strand) [28394 site]”, the activity (% gene modification) (ZFN 28394 (synthetic)) was 49.

Work on “TTGTTGCTCCAGGCCACAGCACTGTTGC (double strand) [25539 site]” yielded an activity (% CD3-negative cells) (ZFN 25539 (synthetic)) of 28.1.
